For test [1], the target named is human serum albumin (human) (UniProt P02768). The test is described as follows: SPR (Biacore), HSA. (In general: In SPR one partner is held on a chip, and binding of the other changes the refractive index at the surface.)
In test [2] the target is human IL-17A (human) (UniProt Q16552). Briefly: AlphaScreen IL17A-RA. For orientation: Bead proximity is the source of the signal in Alpha formats.
The target in test [3] is T1, human IL-17F (human) (UniProt Q96PD4).
T1 sequence: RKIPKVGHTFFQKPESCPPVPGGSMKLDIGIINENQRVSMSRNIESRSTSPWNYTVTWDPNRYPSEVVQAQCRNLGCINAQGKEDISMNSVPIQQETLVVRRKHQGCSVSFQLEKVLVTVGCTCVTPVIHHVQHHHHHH
The test is described as follows: AlphaScreen IL17F-RC.

The target in test [4] is T2, marmoset IL-17F (marmoset) (UniProt A6N6I9).
T2 sequence (looked up): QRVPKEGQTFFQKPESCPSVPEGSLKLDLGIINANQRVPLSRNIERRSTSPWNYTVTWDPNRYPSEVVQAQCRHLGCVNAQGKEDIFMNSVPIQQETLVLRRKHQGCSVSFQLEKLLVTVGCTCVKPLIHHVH
Briefly: ELISA, coated IL-17F. (An ELISA detects its analyte on a solid surface through an enzyme-linked reagent.)

Test [5] addresses marmoset IL-17A (marmoset). The test is described as follows: ELISA, coated IL-17A.
Test [6] addresses Cynomolgus monkey IL-17A (Cynomolgus monkey). The test is described as follows: cell-based or functional assay.
Test [7] deals with T3, Cynomolgus monkey IL-17F (Cynomolgus monkey) (UniProt G7P4V0).
T3 sequence: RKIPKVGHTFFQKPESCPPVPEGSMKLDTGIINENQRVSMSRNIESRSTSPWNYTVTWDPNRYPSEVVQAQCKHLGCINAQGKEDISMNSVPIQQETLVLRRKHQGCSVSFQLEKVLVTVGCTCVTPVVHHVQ
Briefly: cell-based or functional assay.

Test [8] addresses human IL-17A (human) (UniProt Q16552). The test is described as follows: AlphaScreen IL17A-RC.
In test [9] the target is T1, human IL-17F (human). Briefly: AlphaScreen IL17F-RA.
Test [10] concerns the target human IL-17A/F heterodimer (human) (UniProt Q16552). Briefly: AlphaScreen IL17A/F-RA.
The target is the same in test [11]. The test is described as follows: AlphaScreen IL17A/F-RC.
The target of test [12] is human IL-17A (human) (UniProt Q16552). The test is described as follows: cell-based or functional assay.
Test [13] deals with human IL-17A/F heterodimer (human) (UniProt Q16552). Briefly: cell-based or functional assay.
Chain of human IL-17A/F heterodimer (human) (Q16552 24-155 limits assumed, one chain of several): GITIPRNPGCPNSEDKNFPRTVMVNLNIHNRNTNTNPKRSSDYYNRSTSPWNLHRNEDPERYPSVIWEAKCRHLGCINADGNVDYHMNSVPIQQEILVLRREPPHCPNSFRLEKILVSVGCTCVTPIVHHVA
Test [14] addresses T1, human IL-17F (human). The test is described as follows: cell-based or functional assay.
In test [15] the target is human IL-17A (human) (UniProt Q16552). The test is described as follows: AlphaScreen IL17A-RA + HSA.
Test [16] has as its target T1, human IL-17F (human). The test is described as follows: AlphaScreen IL17F-RC + HSA.
For test [17], the target named is human IL-17A/F heterodimer (human) (UniProt Q16552). The test is described as follows: AlphaScreen IL17A/F-RA + HSA.

Data on eight molecules can be found in patent US20210130452A1.

One may read the koff as the rate constant with which the complex falls apart. One may read the IC50 as the concentration needed to halve the response being measured.

Chain of human IL-17A (human) (Q16552 other isoform, or with tags, fused parts or gaps): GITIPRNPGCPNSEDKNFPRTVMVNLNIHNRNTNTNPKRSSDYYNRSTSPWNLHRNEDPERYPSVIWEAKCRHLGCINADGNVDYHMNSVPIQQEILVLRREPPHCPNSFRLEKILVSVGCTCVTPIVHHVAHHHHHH
Chain of Cynomolgus monkey IL-17A (Cynomolgus monkey) (chain, as listed by the source): as the sequence (Q16552 24-155 limits assumed, one chain of several) above, with T3A, P8S, N34S, I77V, N78K, P104R counted along it
Chain of marmoset IL-17A (marmoset) (chain, as listed by the source limits assumed): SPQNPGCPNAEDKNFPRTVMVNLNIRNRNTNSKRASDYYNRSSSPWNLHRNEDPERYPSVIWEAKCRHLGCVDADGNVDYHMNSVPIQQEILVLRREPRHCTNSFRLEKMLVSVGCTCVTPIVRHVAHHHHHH

B1: IL17MS0154 (bispecific antibody, part only; not given: linkers and anti-albumin Nanobody, not shown: small tags and cut ends)
chain, part: EVQLVESGGGLVQAGGSLRLSCAASGRTFSSYVVGWFRQAPGKEREFIGAISGSGDSIYYAVSEKDRFTISRDNGKNTLYLQMSSLKAEDTAVYYCTADQEFGYLRFGRSEYWGQGTQVTVSSEVQLVESGGGLVQAGGSQRLSCTASGTIVNIHVMGWYRQAPGKQRELVALIFSGGSADYADSVKGRFTISRDNAKNTVYLEMNSLKAEDTAVYYCAAEIGYYSGGTYYSSEAHWGQGTQVTVSS
In the case of B1, the off-rate (koff) in test [1] is 0.0057 s⁻¹. Besides, the 50% inhibitory concentration (IC50) with human IL-17A (human) [2] was 56 pM; in the test with human IL-17F (human) [3] it was 47 pM.

B2: 17C01 (VHH)
VHH: EVQLVESGGRLVQAGGSLRLPCAASGRTFTSYPMGWFRQAPGKEREFVAAISMSGDDAAYADFVRGRFTISRDDARNTVYLHMTSLKPEDTAVYYCAARTSYDGTYDYIDDYSYWGQGTQVTVSS
With B2, the OD in test [4] amounted to 0.0525 OD.

B3: IL17MS0110 (bispecific antibody, part only; not given: linkers and anti-albumin Nanobody, not shown: small tags and cut ends)
chain, part: EVQLVESGGGLVQAGGSQRLSCTASGTIVNIHVMGWYRQAPGKQRELVALIFSGGSADYADSVKGRFTISRDNAKNTVYLEMNSLKAEDTAVYYCAAEIGYYSGGTYYSSEAHWGQGTQVTVSSEVQLVESGGGLVQAGGSLRLSCAASGRTFSSYVVGWFRQAPGKEREFIGAISGSGDSIYYAVSEKDRFTISRDNGKNTLYLQMSSLKAEDTAVYYCTADQEFGYLRFGRSEYWGQGTQVTVSS
With B3, the koff in test [1] stood at 0.0061 s⁻¹. Besides, the 50% inhibitory concentration (IC50) with human IL-17A (human) [2] stood at 45 pM; in the test with human IL-17F (human) [3], 48 pM.

B4: 24G10 (VHH)
VHH: EVQLVESGGGLVQAGGSLRLSCGAAGGTFSSYATGWFRQAPGKEREFVAVFRWSDSHTAYADSVKGRFTISRDGAKNTLYLQMSSLKPEDTAIYYCTTATRPGEWDYWGQGTQVTVSS
Take B4: the OD in test [5] is 0.122 OD.

B5: 07B11 (VHH)
VHH: EVQLVESGGGLVQAGGSLRLSCVASGRAFSSYVMGWFRQAPGMEREFVALIRWSDGITGYVDSVKGRFTISRDNAKNTVYLQMNSLKPEDTAVYYCAAAVRPGDYDYWGQGTQVTVSS
For the molecule B5, the OD in test [5] was 0.186 OD.

B6: SH-Fc-(GS)2-13B03 (Fc fusion, not shown: a dimerising Fc or GST; small tags and cut ends)
chain: EVQLVESGGGSVQAGDSLRLSCAASGRANSINWFGWFRQTPGKEREFVAGIRWSDAYTEYANSVKGRFTISRDNAKNTVDLQMDSLKPEDTAVYYCVLDLSTVRYWGQGTQVTVSS
With B6, in [6], the Emax, Cyno IL17A, HT-1080 bioassay was found to be 98% and the IC50, Cyno IL17A, HT-1080 bioassay came to 370 pM. In test [7], this molecule had an Emax, Cyno IL17F, HT-1080 bioassay of 103% and an IC50, Cyno IL17F, HT-1080 bioassay of 5000 pM.

B7: SH-Fc-(GS)2-13E02 (Fc fusion, not shown: a dimerising Fc or GST; small tags and cut ends)
chain: EVQLVESGGGLVQAGGSLRLSCAASGRTYDAMGWLRQAPGKEREFVAAISGSGDDTYYADSVKGRFTISKDNAGITMYLQMNSLKPEDTAVYYCATRRGLYYVWDSNDYENWGQGTQVTVSS
With B7, in test [6], the Emax, Cyno IL17A, HT-1080 bioassay worked out at 100% and the IC50, Cyno IL17A, HT-1080 bioassay was 290 pM. Besides, in test [7], the Emax, Cyno IL17F, HT-1080 bioassay stood at 87% and the IC50, Cyno IL17F, HT-1080 bioassay is 8300 pM.

B8: IL17MS0166 (bispecific antibody, part only; not given: linkers and anti-albumin Nanobody, not shown: small tags and cut ends)
chain, part: EVQLVESGGGLVQAGGSLRLSCGAAGGTFSSYATGWFRQAPGKEREFVAVFRWSDSHTAYADSVKGRFTISRDGAKNTLYLQMSSLKPEDTAIYYCTTATRPGEWDYWGQGTQVTVSSEVQLVESGGGLVQAGGSQRLSCTASGTIVNIHVMGWYRQAPGKQRELVALIFSGGSADYADSVKGRFTISRDNAKNTVYLEMNSLKAEDTAVYYCAAEIGYYSGGTYYSSEAHWGQGTQVTVSS
Consider B8, for which, in test [1], the off-rate (koff) worked out at 0.0059 s⁻¹. The IC50 in the test with human IL-17A (human) [2] was determined as 161 pM; in the test with human IL-17A (human) [8] it was 367 pM; in the test with human IL-17F (human) [9], 1090 pM; with human IL-17F (human) [3], 46 pM; in test [10], 128 pM; in test [11] it was 51 pM. Further, the 50% inhibitory concentration (IC50) with human IL-17A (human) [15] came out at 203 pM; with human IL-17F (human) [16], 56 pM; in [17], 95 pM. Besides, the Emax, hIL-17A induced IL-6, HT-1080, 100 µM HSA in the test with human IL-17A (human) [12] stood at 98%. In the test with human IL-17A (human) [12], this molecule displayed an Emax, hIL-17A induced IL-6, HT-1080, without HSA of 105%. For the same molecule, the IC50, hIL-17A induced IL-6, HT-1080, 100 µM HSA in the test with human IL-17A (human) [12] stood at 1950 pM. The molecule also came in with an IC50, hIL-17A induced IL-6, HT-1080, without HSA in the test with human IL-17A (human) [12] of 830 pM. The molecule further yielded an Emax, hIL-17A/F induced IL-6, HT-1080, 100 µM HSA in test [13] of 72%. Moreover, the IC50, hIL-17A/F induced IL-6, HT-1080, 100 µM HSA in [13] amounted to 1470 pM. In the test with human IL-17F (human) [14], the Emax, hIL-17F induced IL-6, HT-1080, 100 µM HSA came to 85%. In addition, the Emax, hIL-17F induced IL-6, HT-1080, without HSA with human IL-17F (human) [14] stood at 102%. In the test with human IL-17F (human) [14], the IC50, hIL-17F induced IL-6, HT-1080, 100 µM HSA was found to be 8500 pM. Further, the IC50, hIL-17F induced IL-6, HT-1080, without HSA with human IL-17F (human) [14] is 7350 pM.
